Patent US20240293499A1

Tests used:
[1] = target: T1, murine VISTA on mouse splenocytes (macrophages, neutrophils, CD4+ T cells) (mouse) (UniProt Q9D659); test: cell-based or functional assay
T1 sequence (looked up): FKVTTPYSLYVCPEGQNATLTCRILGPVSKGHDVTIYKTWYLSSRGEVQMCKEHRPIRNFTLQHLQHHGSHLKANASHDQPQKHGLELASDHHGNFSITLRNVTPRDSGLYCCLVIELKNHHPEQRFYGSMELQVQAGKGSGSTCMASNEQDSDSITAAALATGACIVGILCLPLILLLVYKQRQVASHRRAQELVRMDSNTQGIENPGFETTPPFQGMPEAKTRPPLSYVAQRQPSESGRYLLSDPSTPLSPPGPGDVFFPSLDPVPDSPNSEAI

[2] = target: hVISTA-COMP-his, pentameric form comprising the extracellular IgV domain of human VISTA (human) (UniProt Q9H7M9); test: SPR (BIAcore T200), single-cycle kinetics; hVISTA-COMP-his captured on anti-His chip, mAb as analyte; 1:1 Langmuir fit
[3] = target: T2, mVISTA-COMP-his, pentameric form comprising the extracellular IgV domain of murine VISTA (mouse) (UniProt Q9D659); test: SPR (BIAcore T200), single-cycle kinetics; mVISTA-COMP-his captured on anti-His chip, mAb as analyte; 1:1 Langmuir fit
T2 sequence (Q9D659 whole entry, looked up): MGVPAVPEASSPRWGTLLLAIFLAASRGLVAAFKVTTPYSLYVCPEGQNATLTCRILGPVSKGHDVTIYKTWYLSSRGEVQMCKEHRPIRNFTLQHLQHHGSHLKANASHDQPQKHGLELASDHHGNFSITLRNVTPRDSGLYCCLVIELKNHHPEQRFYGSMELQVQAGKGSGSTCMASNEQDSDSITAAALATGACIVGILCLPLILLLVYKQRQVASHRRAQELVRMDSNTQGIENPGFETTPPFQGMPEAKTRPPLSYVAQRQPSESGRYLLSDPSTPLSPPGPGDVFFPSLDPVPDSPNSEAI

[4] = target: hVISTA-COMP-his, pentameric form comprising the extracellular IgV domain of human VISTA (human) (UniProt Q9H7M9); test: SPR (BIAcore T200), single-cycle kinetics, hVISTA-COMP-his captured on anti-His chip, mAb injected at 20, 40, 80, 160, 320 nM, 1:1 fit
[5] = target: T2, mVISTA-COMP-his, pentameric form comprising the extracellular IgV domain of murine VISTA (mouse); test: SPR (BIAcore T200), single-cycle kinetics, mVISTA-COMP-his captured on anti-His chip, mAb injected at 20, 40, 80, 160, 320 nM, 1:1 fit

Sequence of hVISTA-COMP-his, pentameric form comprising the extracellular IgV domain of human VISTA (human) (Q9H7M9 33-194): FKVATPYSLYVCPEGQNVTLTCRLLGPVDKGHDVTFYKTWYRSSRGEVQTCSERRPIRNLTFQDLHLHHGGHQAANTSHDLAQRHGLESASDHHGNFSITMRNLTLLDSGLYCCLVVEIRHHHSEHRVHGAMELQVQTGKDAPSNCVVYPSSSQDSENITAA

reduction of proliferation of ConA-stimulated CD4+ T cells, mouse splenocytes [1]: 4%
Kd [2]: 840 nM
Kd [3]: 3 nM
Kd [4]: 838 nM
koff [4]: 0.000331 s⁻¹
kon [4]: 395 M⁻¹ s⁻¹
Kd [5]: 3 nM
koff [5]: 0.000177 s⁻¹
kon [5]: 59000 M⁻¹ s⁻¹
B1: rat anti-hmVISTA mAb 7C6 (antibody, part only; not given: light chain, rat IgG2a, V domains shown, part only)
VH: QVQLQQSGAELAKPGSSVKISCKASGYTFTSYYISWIKQTTGQGLEYIGYINTGSGGTNYNEKFKGKATLTVDKSSSTAFMQLSSLTPDDSAVYYCAREGTFYSGDVGYWYFDFWGPGSMVTVSS
